Results reported in patent publication US20160264664A1.

Tests used:
mouse P2X7 (mouse) = biological target: T1, mouse P2X7 (mouse) (UniProt Q9Z1M0); assay: cell-based or functional assay
T1 sequence: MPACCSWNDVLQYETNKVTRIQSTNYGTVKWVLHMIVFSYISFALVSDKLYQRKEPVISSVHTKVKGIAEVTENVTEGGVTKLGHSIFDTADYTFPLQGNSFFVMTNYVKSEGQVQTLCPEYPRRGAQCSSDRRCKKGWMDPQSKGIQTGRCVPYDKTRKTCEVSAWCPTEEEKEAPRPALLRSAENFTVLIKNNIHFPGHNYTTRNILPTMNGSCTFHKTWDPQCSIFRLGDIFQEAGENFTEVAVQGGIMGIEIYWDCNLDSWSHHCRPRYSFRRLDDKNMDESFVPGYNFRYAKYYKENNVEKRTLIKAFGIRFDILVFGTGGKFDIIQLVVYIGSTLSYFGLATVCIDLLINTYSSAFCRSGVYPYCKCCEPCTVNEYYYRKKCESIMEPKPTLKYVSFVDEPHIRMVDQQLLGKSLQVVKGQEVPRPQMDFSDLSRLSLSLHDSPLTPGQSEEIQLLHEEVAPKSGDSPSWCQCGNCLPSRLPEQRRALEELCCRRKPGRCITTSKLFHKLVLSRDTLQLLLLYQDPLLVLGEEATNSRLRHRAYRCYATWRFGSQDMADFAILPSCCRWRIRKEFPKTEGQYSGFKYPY

[1] = biological target: plasma-derived HBsAg particles (Biodesign) (hepatitis B virus); assay: SPR (Biacore), periplasmic extract over immobilised plasma-derived HBsAg particles, 1:1 dissociation model

B1: 14D5-35GS-14D5 (VHH)
chain: EVQLVESGGGLVQAGGSLRLSCAASGSPISSYAMGWYRQAPGKPRELVARIYTGGTAWYEDSVKGRFTISRDNAQNTVYLQMNSLKSEDTAVYYCHGRVRYDYWGQGTQVTVSSGGGGSGGGGSGGGGSGGGGSGGGGSGGGGSGGGGSEVQLVESGGGLVQAGGSLRLSCAASGSPISSYAMGWYRQAPGKPRELVARIYTGGTAWYEDSVKGRFTISRDNAQNTVYLQMNSLKSEDTAVYYCHGRVRYDYWGQGTQVTVSS
EC50, enhancement of CD62L-ectodomain shedding at 1.5 µM NAD (mouse P2X7 (mouse)): 0.06 nM
EC50, enhancement of CD62L-ectodomain shedding at 33 µM ATP (mouse P2X7 (mouse)): 0.1 nM
increase in potency vs. monovalent 14D5 (ATP-induced shedding) (mouse P2X7 (mouse)): 220 fold
increase in potency vs. monovalent 14D5 (NAD-induced shedding) (mouse P2X7 (mouse)): 40 fold

B2: 13A7-35GS-13A7 (VHH)
chain: EVQLVESGGGLVQPGESLRLSCTASRFMLDYYDIGWFRQAPGKEREGVSCRFTNDGSTAYADSVKGRFTISRDIVKHTVYLQMNSLQPEDTAVYYCAAGPLTKRRQCVPGDFSMDFWGEGTLVTVSSGGGGSGGGGSGGGGSGGGGSGGGGSGGGGSGGGGSEVQLVESGGGLVQPGESLRLSCTASRFMLDYYDIGWFRQAPGKEREGVSCRFTNDGSTAYADSVKGRFTISRDIVKHTVYLQMNSLQPEDTAVYYCAAGPLTKRRQCVPGDFSMDFWGEGTLVTVSS
IC50, CD62L shedding at 20 µM NAD (mouse P2X7 (mouse)): 0.3 nM
IC50, CD62L shedding at 100 µM ATP (mouse P2X7 (mouse)): 0.1 nM
potency increase vs. monovalent 13A7 (ATP) (mouse P2X7 (mouse)): 9 fold
potency increase vs. monovalent 13A7 (NAD) (mouse P2X7 (mouse)): 23 fold

B3: 8G11-35GS-8G11 (VHH)
chain: EVQLVESGGGLVQAGGSLRLSCAASGNFFRVNTMAWYRQAPGKQRELVADITRGDRTNYADTVNGRFTISRDNVRNTVYLQMNGLRPEDTAAYYCYAVIELGVLEPRDYWGQGTQVTVSSGGGGSGGGGSGGGGSGGGGSGGGGSGGGGSGGGGSEVQLVESGGGLVQAGGSLRLSCAASGNFFRVNTMAWYRQAPGKQRELVADITRGDRTNYADTVNGRFTISRDNVRNTVYLQMNGLRPEDTAAYYCYAVIELGVLEPRDYWGQGTQVTVSS
IC50, CD62L shedding at 20 µM NAD (mouse P2X7 (mouse)): 0.52 nM
IC50, CD62L shedding at 100 µM ATP (mouse P2X7 (mouse)): 0.2 nM
potency increase vs. monovalent 8G11 (ATP) (mouse P2X7 (mouse)): 84 fold
potency increase vs. monovalent 8G11 (NAD) (mouse P2X7 (mouse)): 146 fold

B4: HBSAGPMP2E7 (VHH)
VHH: EVQLVESGGGLLQAGGSLRLSCAASERAFIIYGKAWFRQAPGKEREFVAGINWNGGDLHYADSVKGRFTISRDNTNNVVYLQMNSLKSEDTAVYYCAVRRGTAYETDVSSYEWGTQVTVSS
koff [1]: 0.00088 s⁻¹

B5: HBSAGPMP2E12 (VHH)
VHH: EVQLVESGGGLVQAGGSLRLSCAASGRSISEYAMGWFRQAPGQEREFVASISTSGGSTTYADSVKGRFIISRDNAKNTVYLQMNSLKPEDTAVYYCARYNGWMYYAGTMGVHFGQGTQVTVSS
koff [1]: 0.0013 s⁻¹
